Changes are numbered by the printed parent chain. Numbers in names are those of the source.
T1: human IL-18BP (human, UniProt O95998 31-194)
T1 construct: UniProt printed as 095998; also called hIL-18BP
T1 sequence: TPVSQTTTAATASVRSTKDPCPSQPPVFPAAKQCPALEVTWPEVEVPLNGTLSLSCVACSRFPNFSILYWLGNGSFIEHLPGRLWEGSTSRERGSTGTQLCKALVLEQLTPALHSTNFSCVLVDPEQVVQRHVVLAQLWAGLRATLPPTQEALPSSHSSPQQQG

B1: SA301a HC-H52A (antibody, name in Kabat numbering, V domains shown)
VH: QVQLQESGPGLVKPSQTLSLTCTVSGYSITSDYNSHWIRQPPGKGLEWIGYIAYSGSTNYNPSLKSRVTISRDTSKNQFSLKLSSVTAADTAVYYCARNYGSIYVNYFDYWGQGTLVTVSS
VL: EIVLTQSPATLSLSPGERATLSCSASSSVSYMYWYQQKPGQAPRPLIYRTSNLASGIPARFSGSGSGTDFTLTISSLEPEDFAVYYCQQYHSYPTFGGGTKVEIK
notes: IgG1 kappa
B2: SA301a HC-S54N (antibody, name in Kabat numbering, V domains shown)
VH: B1 VH with A53H, S55N
VL: B1 VL
notes: IgG1 kappa
B3: SA301a HC-S54M (antibody, name in Kabat numbering, V domains shown)
VH: B1 VH with A53H, S55M
VL: B1 VL
notes: IgG1 kappa
B4: SA301a HC-S54L (antibody, name in Kabat numbering, V domains shown)
VH: B1 VH with A53H, S55L
VL: B1 VL
notes: IgG1 kappa
B5: SA301a HC-S54R (antibody, name in Kabat numbering, V domains shown)
VH: B1 VH with A53H, S55R
VL: B1 VL
notes: IgG1 kappa
B6: SA301a HC-H52T (antibody, name in Kabat numbering, V domains shown)
VH: B1 VH with A53T
VL: B1 VL
notes: IgG1 kappa
B7: SA301a HC-H52P (antibody, name in Kabat numbering, V domains shown)
VH: B1 VH with A53P
VL: B1 VL
notes: IgG1 kappa
B8: SA301a HC-S54G (antibody, name in Kabat numbering, V domains shown)
VH: B1 VH with A53H, S55G
VL: B1 VL
notes: IgG1 kappa
B9: SA301a HC-S54Q (antibody, name in Kabat numbering, V domains shown)
VH: B1 VH with A53H, S55Q
VL: B1 VL
notes: IgG1 kappa
B10: SA301a HC-H52K (antibody, name in Kabat numbering, V domains shown)
VH: B1 VH with A53K
VL: B1 VL
notes: IgG1 kappa
B11: SA301a HC-S54P (antibody, name in Kabat numbering, V domains shown)
VH: B1 VH with A53H, S55P
VL: B1 VL
notes: IgG1 kappa
B12: SA301a HC-H52Y (antibody, name in Kabat numbering, V domains shown)
VH: B1 VH with A53Y
VL: B1 VL
notes: IgG1 kappa
B13: SA302a HC-Y33aL (antibody, V domains shown)
VH: B1 VH with Y33L, S35A, A53H
VL: B1 VL
B14: SA302a HC-D33H (antibody, V domains shown)
VH: B1 VH with D32H, S35A, A53H
VL: B1 VL
B15: SA302a HC-S31Q (antibody, V domains shown)
VH: B1 VH with S31Q, S35A, A53H
VL: B1 VL
B16: SA302a HC-Y33aE (antibody, V domains shown)
VH: B1 VH with Y33E, S35A, A53H
VL: B1 VL
B17: SA302a HC-Y33aV (antibody, V domains shown)
VH: B1 VH with Y33V, S35A, A53H
VL: B1 VL
B18: SA302a HC-H35R (antibody, V domains shown)
VH: B1 VH with S35A, H36R, A53H
VL: B1 VL
B19: SA302a HC-D33N (antibody, V domains shown)
VH: B1 VH with D32N, S35A, A53H
VL: B1 VL
B20: SA302a HC-N33bA (antibody, V domains shown)
VH: B1 VH with N34A, S35A, A53H
VL: B1 VL
B21: SA302a HC-N33bY (antibody, V domains shown)
VH: B1 VH with N34Y, S35A, A53H
VL: B1 VL
B22: SA302a HC-N33bP (antibody, V domains shown)
VH: B1 VH with N34P, S35A, A53H
VL: B1 VL
B23: SA302a HC-N33bH (antibody, V domains shown)
VH: B1 VH with N34H, S35A, A53H
VL: B1 VL
B24: SA302a HC-D33R (antibody, V domains shown)
VH: B1 VH with D32R, S35A, A53H
VL: B1 VL
B25: SA302a HC-H35G (antibody, V domains shown)
VH: B1 VH with S35A, H36G, A53H
VL: B1 VL
B26: SA302a HC-N33bR (antibody, V domains shown)
VH: B1 VH with N34R, S35A, A53H
VL: B1 VL
B27: SA302a HC-Y33aR (antibody, V domains shown)
VH: B1 VH with Y33R, S35A, A53H
VL: B1 VL
B28: SA302a HC-N33bQ (antibody, V domains shown)
VH: B1 VH with N34Q, S35A, A53H
VL: B1 VL
B29: SA302a HC-H35L (antibody, V domains shown)
VH: B1 VH with S35A, H36L, A53H
VL: B1 VL
B30: SA302a HC-N33bF (antibody, V domains shown)
VH: B1 VH with N34F, S35A, A53H
VL: B1 VL
B31: SA302a HC-N33bG (antibody, V domains shown)
VH: B1 VH with N34G, S35A, A53H
VL: B1 VL
B32: SA302a HC-Y33aM (antibody, V domains shown)
VH: B1 VH with Y33M, S35A, A53H
VL: B1 VL
B33: SA302a HC-S31P (antibody, V domains shown)
VH: B1 VH with S31P, S35A, A53H
VL: B1 VL
B34: SA302a HC-H35D (antibody, V domains shown)
VH: B1 VH with S35A, H36D, A53H
VL: B1 VL
B35: SA302a HC-S31A (antibody, V domains shown)
VH: B1 VH with S31A, S35A, A53H
VL: B1 VL
B36: SA302a HC-H35N (antibody, V domains shown)
VH: B1 VH with S35A, H36N, A53H
VL: B1 VL
B37: SA302a HC-N33bT (antibody, V domains shown)
VH: B1 VH with N34T, S35A, A53H
VL: B1 VL
B38: SA302a HC-Y33aN (antibody, V domains shown)
VH: B1 VH with Y33N, S35A, A53H
VL: B1 VL
B39: SA302a HC-S31E (antibody, V domains shown)
VH: B1 VH with S31E, S35A, A53H
VL: B1 VL
B40: SA302a HC-S31M (antibody, V domains shown)
VH: B1 VH with S31M, S35A, A53H
VL: B1 VL
B41: SA302a HC-N33bV (antibody, V domains shown)
VH: B1 VH with N34V, S35A, A53H
VL: B1 VL
B42: SA302a HC-Y33aD (antibody, V domains shown)
VH: B1 VH with Y33D, S35A, A53H
VL: B1 VL
B43: SA302a HC-Y33aS (antibody, V domains shown)
VH: B1 VH with Y33S, S35A, A53H
VL: B1 VL
B44: SA302a HC-N33bK (antibody, V domains shown)
VH: B1 VH with N34K, S35A, A53H
VL: B1 VL
B45: SA302a HC-D33I (antibody, V domains shown)
VH: B1 VH with D32I, S35A, A53H
VL: B1 VL
B46: SA302a HC-Y33aH (antibody, V domains shown)
VH: B1 VH with Y33H, S35A, A53H
VL: B1 VL
B47: SA302a HC-N33bD (antibody, V domains shown)
VH: B1 VH with N34D, S35A, A53H
VL: B1 VL

Biological target: T1, human IL-18BP
Assay: BLI, apparent KD

| Binder | Kd [nM] |
| --- | --- |
| B1 | 0.24 |
| B2 | 0.36 |
| B3 | 1.94 |
| B4 | 2.64 |
| B5 | 4.06 |
| B6 | 1.92 |
| B7 | 0.01 |
| B8 | 0.33 |
| B9 | 2.31 |
| B10 | 0.01 |
| B11 | 1.11 |
| B12 | 0.79 |

Biological target: T1, human IL-18BP
Assay: BLI, apparent KD
Remark: another data set of the same source

| Binder | Kd [nM] |
| --- | --- |
| B13 | 2.36 |
| B14 | 2.99 |
| B15 | 0.56 |
| B16 | 8.65 |
| B17 | 4.49 |
| B18 | 1.18 |
| B19 | 1.66 |
| B20 | 5.45 |
| B21 | 6.15 |
| B22 | 6.05 |
| B23 | 2.91 |
| B24 | 2.24 |
| B25 | 2.05 |
| B26 | 2.23 |
| B27 | 8.72 |
| B28 | 6.01 |
| B29 | 1.74 |
| B30 | 5.24 |

| Binder | Kd [nM] |
| --- | --- |
| B31 | 2.21 |
| B32 | 3.05 |
| B33 | 4.37 |
| B34 | 4.23 |
| B35 | 0.92 |
| B36 | 3.02 |
| B37 | 1.63 |
| B38 | 5.92 |
| B39 | 1.53 |
| B40 | 0.61 |
| B41 | 1.36 |
| B42 | 10.5 |
| B43 | 4.38 |
| B44 | 1.12 |
| B45 | 4.97 |
| B46 | 4.11 |
| B47 | 1.03 |

— patent publication US20250368745A1 (published 2025)
